Consider 3 molecules from patent publication US20210395381A1.

First the molecules themselves.
B1: Clone 8.17 (VNAR)
VNAR: ARVDQTPQTITKETGESLTINCVLRDSNCALPSTYWYRKKSGSTNEESISKGGRYVETVNSGSKSFSLRINDLTVEDSGTYRCKVIAYRKSIVRGCNYRKHDVYGDGTAVTVNA
B2: Clone 8.97 (VNAR)
VNAR: ARVDQTPQTITKETGESLTINCVLRDSNCALPSTYWYRKKSGSTNEESISKGGRYVETVNSGSKSFSLRINDLTVEDSGTYRCKVIAQLSSILRGCNYNIDDVYGDGTAVTVNA
B3: Clone 8.137 (VNAR)
VNAR: ARVDQTPQTITKETGESLTINCVLRDSNCALPSTYWYRKKSGSTNEESISKGGRYVETVNSGSKSFSLRINDLTVEDSGTYRCKVIAQLSSILRGCNYFGKDVYGDGTAVTVNA

For this experiment, the target named is recombinant mouse TfR-1 (mouse) (UniProt Q62351). The experiment in a line: phage ELISA.
Chain of recombinant mouse TfR-1 (mouse) (Q62351 89-763 limits assumed): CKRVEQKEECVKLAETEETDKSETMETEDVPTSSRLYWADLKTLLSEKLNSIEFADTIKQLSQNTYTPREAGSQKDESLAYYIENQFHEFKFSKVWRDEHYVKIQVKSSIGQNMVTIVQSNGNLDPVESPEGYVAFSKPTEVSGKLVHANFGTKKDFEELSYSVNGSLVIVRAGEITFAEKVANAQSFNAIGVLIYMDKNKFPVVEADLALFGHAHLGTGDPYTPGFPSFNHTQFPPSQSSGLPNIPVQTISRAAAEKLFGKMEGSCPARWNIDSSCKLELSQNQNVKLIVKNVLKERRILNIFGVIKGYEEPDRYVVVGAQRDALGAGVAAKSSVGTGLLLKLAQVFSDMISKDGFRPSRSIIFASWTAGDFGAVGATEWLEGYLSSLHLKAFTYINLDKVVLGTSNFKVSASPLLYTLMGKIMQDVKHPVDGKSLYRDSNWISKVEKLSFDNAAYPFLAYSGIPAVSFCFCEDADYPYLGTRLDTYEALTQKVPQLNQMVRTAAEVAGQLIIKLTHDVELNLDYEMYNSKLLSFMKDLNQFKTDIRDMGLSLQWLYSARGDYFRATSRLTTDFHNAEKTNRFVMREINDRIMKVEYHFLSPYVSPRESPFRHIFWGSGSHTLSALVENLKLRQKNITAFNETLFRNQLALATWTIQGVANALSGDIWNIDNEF
In the case of B1, the A450 came out at 0.091 A450. To B2 belongs 0.053 A450; to B3, 0.046 A450.
